Laboratory results from article PMC4876375.

Target: chimeric mouse h-ferritin-M6A (recombinant) (mouse | not stated)
Assay: SEC; HiLoad 26/60 Superdex 200; 20 mM Tris-HCl pH 8, 200 mM KCl, 10% glycerol, 2 mM TCEP; elution volume compared with horse spleen ferritin (~440 kDa)

stoichiometry N: 24
Substance: chimeric mouse h-ferritin-M6A (recombinant)
